Source: patent US20220177548A1 (WISTAR INSTITUTE OF ANATOMY AND BIOLOGY, published 2022)

Molecular target: HLA-A2 (on T2 cells) (human)
Assay: T2 cell binding assay, fluorescence index by flow cytometry

| Binder | T2 Binding (FI) |
| --- | --- |
| LLTEKSRWSG (Synthetic 10-mer) [Modified 3 (modified BRAFV600E peptide LLTEKSRWSG)] | 0.9 FI = (MFI peptide/MFI w/o peptide) - 1 |
| LATEKSRWSG (Synthetic 10-mer) [Unmodified 2 (human BRAFV600E peptide LATEKSRWSG, amino acids 597-606 of BRAFV600E)] | 1.1 FI = (MFI peptide/MFI w/o peptide) - 1 |
| LATEKSRWSV (Synthetic 10-mer) [Modified 7 (modified BRAFV600E peptide LATEKSRWSV)] | 1 FI = (MFI peptide/MFI w/o peptide) - 1 |
| LATEKSRWSL (Synthetic 10-mer) [Modified 6 (modified BRAFV600E peptide LATEKSRWSL)] | 0.6 FI = (MFI peptide/MFI w/o peptide) - 1 |
| LLTEKSRWSV (Synthetic 10-mer) [Modified 4 (modified BRAFV600E peptide LLTEKSRWSV)] | 6.5 FI = (MFI peptide/MFI w/o peptide) - 1 |
| LATEKSRWSI (Synthetic 10-mer) [Modified 5 (modified BRAFV600E peptide LATEKSRWSI)] | 0.7 FI = (MFI peptide/MFI w/o peptide) - 1 |
| LITEKSRWSG (Synthetic 10-mer) [Modified 1 (modified BRAFV600E peptide LITEKSRWSG)] | 1 FI = (MFI peptide/MFI w/o peptide) - 1 |
| LMTEKSRWSG (Synthetic 10-mer) [Modified 2 (modified BRAFV600E peptide LMTEKSRWSG)] | 0.8 FI = (MFI peptide/MFI w/o peptide) - 1 |
